# Reference: publication PMC11796321, “Interleukin‐11 receptor is an alternative α‐receptor for interleukin‐6 and the chimeric cytokine IC7” (The Febs Journal, 2024)
# B1: sgp130Fc (fusion protein of soluble hgp130 to the Fc-part of an IgG antibody) (Fc fusion, human, UniProt P40189 23-619, looked up)
# chain: ELLDPCGYISPESPVVQLHSNFTAVCVLKEKCMDYFHVNANYIVWKTNHFTIPKEQYTIINRTASSVTFTDIASLNIQLTCNILTFGQLEQNVYGITIISGLPPEKPKNLSCIVNEGKKMRCEWDGGRETHLETNFTLKSEWATHKFADCKAKRDTPTSCTVDYSTVYFVNIEVWVEAENALGKVTSDHINFDPVYKVKPNPPHNLSVINSEELSSILKLTWTNPSIKSVIILKYNIQYRTKDASTWSQIPPEDTASTRSSFTVQDLKPFTEYVFRIRCMKEDGKGYWSDWSEEASGITYEDRPSKAPSFWYKIDPSHTQGYRTVQLVWKTLPPFEANGKILDYEVTLTRWKSHLQNYTVNATKLTVNLTNDRYLATLTVRNLVGKSDAAVLTIPACDFQATHPVMDLKAFPKDNMLWVEWTTPRESVKKYILEWCVLSDKAPCITDWQQEDGTVHRTYLRGNLAESKCYLITVTPVYADGPGSPESIKAYLKQAPPSKGPTVRTKKVGKNEAVLEWDQLPVDVQNGFIRNYTIFYRTIIGNETAVNVDSSHTEYTLSSLTSDTLYMVRMAAYTDEGGKDGPEFTFTTPKFAQGEIE
# B2: Hyper IL-11 (fusion protein of shIL-11R and hIL-11), Twin-Strep-tagged (other)
# chain: SSPCPQAWGPPGVQYGQPGRSVKLCCPGVTAGDPVSWFRDGEPKLLQGPDSGLGHELVLAQADSTDEGTYICQTLDGALGGTVTLQLGYPPARPVVSCQAADYENFSCTWSPSQISGLPTRYLTSYRKKTVLGADSQRRSPSTGPWPCPQDPLGAARCVVHGAEFWSQYRINVTEVNPLGASTRLLDVSLQSILRPDPPQGLRVESVPGYPRRLRASWTYPASWPCQPHFLLKFRLQYRPAQHPAWSTVEPAGLEEVITDAVAGLPHAVRVSARDFLDAGTWSTWSPEAWGTPSTGGGSGGGSPGPPPGPPRVSPDPRAELDSTVLLTRSLLADTRQLAAQLRDKFPADGDHNLDSLPTLAMSAGALGALQLPGVLTRLRADLLSYLRHVQWLRRAGGSSLKTLEPELGTLQARLDRLLRRLQLLMSRLALPQPPPDPPAPPLAPPSSAWGGIRAAHAILGGLHLTLDWAVRGLLLLKTRL
# What was measured:
# [1] = biological target: T1, recombinant his-tagged soluble human IL-11R (human, UniProt Q14626 24-370); experiment: SPR; Biacore X100, multi-cycle, NTA sensor chip; his-tagged soluble hIL-6R or hIL-11R immobilised (100-250 RU per cycle); cytokines injected 133.33 to 0.183 nM, 30 uL/min, 180 s, dissociation 800 s; 25 °C, PBS with 0.05% P20 and 50 uM EDTA; two-state reaction fit; design: ka1 (two-state fit, first step) / ka2 (two-state fit, second step): unit not given here; details: both partners purified
# T1 construct: soluble human IL-11 α-receptor; In functional rows this id also stands for hIL-11R expressed on Ba/F3 cells (whole receptor); the readout says so; also called sIL-11R; shIL-11R; source: bought: R&D Systems (cat no. 8895-MR)
# T1 sequence (looked up): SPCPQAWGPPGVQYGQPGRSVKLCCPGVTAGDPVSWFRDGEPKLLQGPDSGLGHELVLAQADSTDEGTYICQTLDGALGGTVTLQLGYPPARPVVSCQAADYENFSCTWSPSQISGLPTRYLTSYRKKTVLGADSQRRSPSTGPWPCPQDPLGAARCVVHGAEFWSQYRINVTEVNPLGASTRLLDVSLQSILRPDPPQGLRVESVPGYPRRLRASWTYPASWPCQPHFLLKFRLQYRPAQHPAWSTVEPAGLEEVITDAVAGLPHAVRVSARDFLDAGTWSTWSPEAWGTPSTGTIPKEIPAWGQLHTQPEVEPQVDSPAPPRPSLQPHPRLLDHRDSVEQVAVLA
# [2] = biological target: T2, recombinant his-tagged soluble human IL-6R (human, UniProt P08887 20-365); experiment: as above; design: ka1 (two-state fit, first step) / ka2 (two-state fit, second step): unit not given here; details: both partners purified
# T2 construct: soluble human IL-6 α-receptor; In functional rows this id also stands for hIL-6R expressed on Ba/F3 cells (whole receptor); the readout says so; also called sIL-6R; shIL-6R; source: bought: R&D Systems (cat. no. 10537)
# T2 sequence (looked up): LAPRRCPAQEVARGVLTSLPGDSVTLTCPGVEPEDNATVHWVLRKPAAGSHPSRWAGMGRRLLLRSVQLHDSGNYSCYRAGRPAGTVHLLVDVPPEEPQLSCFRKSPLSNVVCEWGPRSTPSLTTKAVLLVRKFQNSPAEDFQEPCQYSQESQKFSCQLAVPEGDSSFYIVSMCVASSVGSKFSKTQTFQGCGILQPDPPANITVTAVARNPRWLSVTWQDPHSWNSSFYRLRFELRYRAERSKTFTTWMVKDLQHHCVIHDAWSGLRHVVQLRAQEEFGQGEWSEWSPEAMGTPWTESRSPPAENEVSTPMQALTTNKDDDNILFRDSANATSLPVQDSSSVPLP
# [3] = biological target: T1, recombinant his-tagged soluble human …; experiment: cell-based or functional assay
# [4] = biological target: Hyper IL-6 (fusion protein of human sIL-6R and human IL-6), Twin-Strep-tagged (human); experiment: cell-based or functional assay
# [5] = biological target: B2; experiment: cell-based or functional assay
# [6] = biological target: chimeric Hyper-cytokine IL-6/sIL-11R (cHIL-6), Twin-Strep-tagged (human, UniProt Q14626 23-317); experiment: cell-based or functional assay
# [7] = biological target: B1; experiment: SPR; Biacore X100, Protein A sensor chip; sgp130Fc captured via its Fc (200-300 RU per cycle); hyper-cytokines injected 30 uL/min, 120 s, dissociation 300 s (200-0.20 nM cHIL-6, 25-0.05 nM HIL-6, 50-0.62 nM HIL-11); 1:1 binding model; details: both partners purified
# [8] = biological target: B1; experiment: cell-based or functional assay
binder,measurement,setting,value
"Twin-strep-tagged human IL-11 (ligand, UniProt P20809 22-199, looked up, human interleukin 11 (IL-11); A His-tagged hIL-11 from E. coli (hIL-11his) was used only in some Western blots of signalling, not in SPR; also called hIL-11ts; hIL-11) PGPPPGPPRVSPDPRAELDSTVLLTRSLLADTRQLAAQLRDKFPADGDHNLDSLPTLAMSAGALGALQLPGVLTRLRADLLSYLRHVQWLRRAGGSSLKTLEPELGTLQARLDRLLRRLQLLMSRLALPQPPPDPPAPPLAPPSSAWGGIRAAHAILGGLHLTLDWAVRGLLLLKTRL",Kd,[1],0.53 nM
same,"ka1 (two-state fit, first step)",[1],2.3e+06
same,"ka2 (two-state fit, second step)",[1],0.00454
same,"kd1 (two-state fit, first step)",[1],0.00692 s⁻¹
same,"kd2 (two-state fit, second step)",[1],0.000972 s⁻¹
same,Kd,[2],58.4 nM
same,"ka1 (two-state fit, first step)",[2],164000
same,"ka2 (two-state fit, second step)",[2],0.0112
same,"kd1 (two-state fit, first step)",[2],0.0925 s⁻¹
same,"kd2 (two-state fit, second step)",[2],0.00129 s⁻¹
same,"EC50 of proliferation of Ba/F3-hgp130-hIL-11R cells (hIL-11R on cells), 72 h",[3],0.0216 nM
B1,IC50 of sgp130Fc on growth of Ba/F3-gp130 cells induced by 1.7 nM HIL-6 (blocks HIL-6 with gp130 on cells),[4],0.428 nM
same,IC50 of sgp130Fc on growth of Ba/F3-gp130 cells induced by 1.7 nM HIL-11 (blocks HIL-11 with gp130 on cells),[5],0.213 nM
same,IC50 of sgp130Fc on growth of Ba/F3-gp130 cells induced by 1.7 nM cHIL-6 (blocks cHIL-6 with gp130 on cells),[6],0.324 nM
B2,Kd,[7],0.397 nM
same,koff,[7],0.000142 s⁻¹
same,kon,[7],360000 M⁻¹ s⁻¹
same,"EC50 of proliferation of Ba/F3-hgp130 cells (hgp130 on cells), 72 h",[8],0.0578 nM
